Experiment [1] has as its target T1, hTSLP-mFc recombinant protein (ACROBiosystems, Cat. No. TSP-H5255) (human, UniProt Q969D9 29-159).
T1 construct: Bought protein; also called hTSLP-Fc protein; not shown: mouse Fc tag
The experiment in a line: ELISA, hTSLP-mFc coated 50 ng/well, anti-His HRP. The protocol: hTSLP-mFc recombinant protein (ACROBiosystems, Cat. No. TSP-H5255) was coated onto a plate at 50 ng/well and incubated at 4° C. overnight. […] After washing, mouse anti-His tag horseradish peroxidase-labeled antibody (1:5000) (purchased from Beijing Sino Biological, 105327-MM02T-H) was added, and the mixture was reacted at room temperature for 1 hour. After washing, TMD substrate solution was added, and the absorbance was read at 450 nm. Data processing and graphical analysis were performed using the software Graphpad Prism 6.0.

Experiment [2] has as its target T2, hTSLP recombinant protein (ACROBiosystems, Cat. No. TSP-H52Ha) (human, UniProt Q969D9 29-159). As to the kind of experiment: cell-based or functional assay.
The target in experiment [3] is T2, hTSLP recombinant protein …. As to the kind of experiment: competitive ELISA: blocks binding of hIL-7Rα-mFc to hTSLP/TSLPR-Fc complex, anti-mouse Fc HRP. The protocol: TSLPR-Fc fusion protein was coated onto a plate at a concentration of 0.5 μg/mL and a volume of 100 μL per well, and incubated at 4° C. overnight. […] Then, goat anti-mouse Fc tag horseradish peroxidase-labeled antibody (1:5000) was added, and the mixture was reacted at room temperature for 1 hour. Then, TMD substrate solution was added, and the absorbance was read at 450 nm. Data processing and graphical analysis were performed using the software Graphpad Prism 6.0.
For orientation: An ELISA detects its analyte on a solid surface through an enzyme-linked reagent.

The target is the same in experiment [4]. The experiment in a line: competitive ELISA: blocks binding of hTSLP/hTSLPR-Fc complex to coated mouse IL-7Rα-his, anti-human Fc HRP. The method, then: Then, goat anti-human Fc tag horseradish peroxidase-labeled antibody (1:10000) was added, and the mixture was reacted at room temperature for 1 hour. Then, TMD substrate solution was added, and the absorbance was read at 450 nm. Data processing and graphical analysis were performed using the software Graphpad Prism 6.0.

A further experiment addresses T3, hTSLP/TSLPR-Fc complex (human, UniProt Q9HC73 23-231).
T3 construct: also called hTSLP/hTSLPR-Fc complex; not shown: His tag of the bought hTSLP; Fc tag of the bought protein (detected with anti-human Fc)
As to the kind of experiment: ELISA, TSLPR-Fc coated, hTSLP added, hIL-7Rα-mFc titrated, anti-mouse Fc HRP. The method, then: TSLPR-Fc recombinant protein (purchased from ACROBiosystems, Cat. No. TSR-H525a) was coated onto a plate at 0.1 μg/well and incubated at 4° C. overnight. Subsequently, the plate was washed and added with 0.1 μg/well of hTSLP, and the mixture was reacted at room temperature for 1 hour. […] After washing, goat anti-mouse Fc tag horseradish peroxidase-labeled antibody (purchased from Abcam, ab97040) was added, and the mixture was reacted at room temperature for 1 hour. After washing, substrate solution was added, and the absorbance was read at 450 nm.

T2 sequence (Q969D9 29-159 R127A/R130A limits assumed): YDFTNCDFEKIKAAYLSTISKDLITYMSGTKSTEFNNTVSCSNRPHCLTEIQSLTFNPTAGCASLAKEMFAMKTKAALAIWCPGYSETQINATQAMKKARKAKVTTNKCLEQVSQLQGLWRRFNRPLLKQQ
T1 sequence (Q969D9 29-159 R127A/R130A limits assumed): as above

B1: 3H10-his recombinant protein (designed binder)
chain: GSHMDLGKKLLEAAWAGRDDEVRILMANGADVNAGDASGDTPLHLAAFSGHLEIVEVLLKHGADVNAEDLLGMTPLHLAAPFGHLEIVEVLLKHGADVNAAARNNGKTPLHLAAFVGHLEIVEVLLKNGADVNAQDKFGKTAFDISIDNGNEDLAEILQKLNG
notes: Expressed in E. coli Rosetta from pet28b, purified on a nickel column; also called 3H10-his fusion protein; 3H10 recombinant protein; not shown: His tag from vector pet28b
A word on the EC50: it is the concentration that produces a half-maximal response. A word on the IC50: it is the concentration at which inhibition is half-maximal. For the molecule B1, the EC50 in experiment [1] was 0.029 µg/mL. The “inhibition of hTSLP-induced reporter gene expression in BaF3-hTSLPR-hIL-7R-STAT5-Luc cells, IC50” value in experiment [2] amounted to 0.348 nM. The “inhibition of the proliferation-promoting effect of hTSLP on Ba/F3-TSLPR/IL-7Rα cells (CTG), IC50” value in experiment [2] turned out to be 1.55 nM. For the same molecule, the figures for the IC50 in experiment [3] and in experiment [4] were 1.29 nM and 1.69 nM, respectively.

B2: hIL-7Rα-mFc (ACROBiosystems, Cat. No. ILA-H5258) (Fc fusion, human, UniProt P16871 21-239, looked up)
chain: ESGYAQNGDLEDAELDDYSFSCYSQLEVNGSQHSLTCAFEDPDVNITNLEFEICGALVEVKCLNFRKLQEIYFIETKKFLLIGKSNICVKVGEKSLTCKKIDLTTIVKPEAPFDLSVVYREGANDFVVTFNTSHLQKKYVKVLMHDVAYRQEKDENKWTHVNLSSTKLTLLQRKLQPAAMYEIKVRSIPDHYFKGFWSEWSPSYYFRTPEINNSSGEMD
notes: Bought protein; not shown: mouse Fc tag
For the molecule B2, the EC50 in the experiment with hTSLP/TSLPR-Fc complex turned out to be 0.689 µg/mL.

B3: TSLPR-his (Novoprotein Scientific Inc., Cat. No. CW75) (receptor, UniProt Q9HC73 23-231, looked up)
chain: QGGAAEGVQIQIIYFNLETVQVTWNASKYSRTNLTFHYRFNGDEAYDQCTNYLLQEGHTSGCLLDAEQRDDILYFSIRNGTHPVFTASRWMVYYLKPSSPKHVRFSWHQDAVTVTCSDLSYGDLLYEVQYRSPFDTEWQSKQENTCNVTIEGLDAEKCYSFWVRVKAMEDVYGPDTYPSDWSEVTCWQRGEIRDACAETPTPPKPKLSK
notes: Bought protein; not shown: His tag
On to B3, for which the EC50 in experiment [1] was 0.803 µg/mL.
